B1: PW5-570 (antibody, V domains shown)
VH: QMQLVQSGPEVRKPGTSVKVSCRASVFSFDTSAVQWVRQARGQPLEWIGWIVFGSSNTDYAQKFRDRVTITGDMSTGTAYMELSSLRSEDTAVYYCAAPHCNRTNCHDGFDIWGQGTVVTVSS
VL: EIVLTQSPGTLSLSPGERATLSCRASQSVRSGYLGWYQQKPGQAPRLLIYGAYNRATGIPDRFRGSGSGTDFTLTISRLEPEDFVVYYCQQYDRSPWTFGQGTKVEIK
notes: also called PW5-570 IgG; PW5-570 immunoglobulin G
B2: PW5-5 (antibody, V domains shown)
VH: QVQLVQSGAEVKKPGASVKVSCKTSGYTFTDHYMYWVRQAPGQGLEWMGVINPDAGSVTYAQKFQGRVTMTSDTSTSTVYMELSSLRSEDTAVYYCARDLFFIPAANSFDYWGQGTLVTVSS
VL: EIVLTQSPATLSLSPGERATLSCRASQSVSSYLAWYQQKPGQAPRLLIYDATNRATGIPARFSGSGSGTDFTLTISSLEPEDFAVYYCQHRSNWPRMFTFGQGTKLEIK
notes: also called PW5-5 IgG; IgG PW5-5
B3: PW5-535 (antibody, V domains shown)
VH: EVRLVESGGGLVQPGGSLRLSCAASGFTFRNYDIHWVRQTTGKGLEWVSAVGTSGDTYYLDSVKGRFTISREDAKKSVYLQMNSLRAGDTAMYYCVRGDASPDNIYYYMDVWGTGTRVIVSS
VL: DIQVTQSPSPLSASVGDRVTITCRASQTIGKYLNWYHQIPGKAPKLLISAASTLHSGVPSRFSGRGSGTDFTLTISSLQPEDFGTYYCQQSYSSPPWTFGQGTKVEIK

Molecular target: SARS-CoV-2 S trimer (stabilized soluble S2P) (SARS-CoV-2, ancestral (WT, Wuhan-Hu-1 …, UniProt P0DTC2, stabilised))
Assay: ELISA
Conditions: both partners purified

Row | Binder | binding result
1 | B1 | binds
2 | B2 | binds
3 | B3 | binds

From paper PMC10847457 (Cell Discovery, 2024)
